Source: PMC11006857, “Structure-guided functional suppression of AML-associated DNMT3A hotspot mutations” (Nature Communications, 2024)
Positions count from the first letter of the chain named. Numbers in names are those of the source.

B1: MBP-tagged DNMT3A MTase domain R676K (domain or fragment, human, UniProt Q9Y6K1 628-912, looked up)
chain: AEKRKPIRVLSLFDGIATGLLVLKDLGIQVDRYIASEVCEDSITVGMVKHQGKIMYVGDVRSVTQKHIQEWGPFDLVIGGSPCNDLSIVNPARKGLYEGTGRLFFEFYRLLHDARPKEGDDRPFFWLFENVVAMGVSDKRDISRFLESNPVMIDAKEVSAAHRARYFWGNLPGMNRPLASTVNDKLELQECLEHGRIAKFSKVRTITTRSNSIKQGKDQHFPVFMNEKEDILWCTEMERVFGFPVHYTDVSNMSRLARQRLLGRSWSVPVIRHLFAPLKEYFACV
notes: human DNMT3A MTase domain, residues 628-912; source: E. coli BL21(DE3) RIL, purified; not shown: MBP, N-terminal, kept
B2: MBP-tagged DNMT3A MTase domain M674T/R676K (domain or fragment, human, UniProt Q9Y6K1 628-912, looked up)
chain: B1 chain with M47T
notes: as for B1
B3: DNMT3A^R882H/N879A (crystallised form) (domain or fragment, human)
chain: B1 chain with K49R, N252A, R255H
notes: human DNMT3A; the abstract speaks of crystal structures of the methyltransferase domain; The crystallisation methods name only R882H/R676K and R882C/R676K as mutants; probably residues 628-912 like the others; also called DNMT3A^N879A/R882H; N879A/R882H-mutated DNMT3A; source: E. coli BL21(DE3) RIL, purified

What was measured:
[1] = molecular target: DNMT3A^R882H/N879A protein (as used for size-exclusion chromatography) (human); experiment: SEC; Superose 6 Increase 10/300 GL, 100 µL of 3 mg/mL protein, 4 °C, 20 mM Hepes pH 7.2, 250 mM NaCl, 5% glycerol, 5 mM DTT; elution volume against molecular weight standards
[2] = molecular target: the molecule itself; experiment: as above
[3] = molecular target: the molecule itself; experiment: crystal structure; DNMT3A MTase domain with S-adenosyl-homocysteine; sitting drop vapor diffusion, 0.2-0.4 M potassium sodium tartrate, 4 °C; homotetramer via RD and FF interfaces

| Molecule | binding result [2] | also measured |
| --- | --- | --- |
| DNMT3A^R882H/N879A protein (as used for size-exclusion chromatography) (domain or fragment) |  | stoichiometry N [1]: 4 |
| B1 | binds |  |
| B2 | binds |  |
| B3 |  | stoichiometry N [3]: 4 |
